Reference: patent US20210171580

Columns and labels:
[1] = system: M401 (synthetic (M160-nuc A339E)); experiment: cleavage_in_vitro; settings: relative to Pfu polymerase, 37 C, 4 mM MgCl2
[2] = system: M402 (synthetic (M160-nuc with G46D and 3'-5' exo reactivated)); experiment: cleavage_in_vitro; settings: relative to Pfu polymerase, 37 C, 4 mM MgCl2
[3] = system: M401 (synthetic (M160-nuc A339E)); settings: vs M160-nuc
[4] = system: M160-nuc (synthetic (shuffled viral polymerase fused to Taq 5'-3' nuclease domain)); settings: reference
[5] = system: M403 (synthetic (M160-nuc, both nucleases inactive)); settings: vs M160-nuc
M403 (synthetic (M160-nuc, both nucleases inactive)), sequence (chain, as listed by the source): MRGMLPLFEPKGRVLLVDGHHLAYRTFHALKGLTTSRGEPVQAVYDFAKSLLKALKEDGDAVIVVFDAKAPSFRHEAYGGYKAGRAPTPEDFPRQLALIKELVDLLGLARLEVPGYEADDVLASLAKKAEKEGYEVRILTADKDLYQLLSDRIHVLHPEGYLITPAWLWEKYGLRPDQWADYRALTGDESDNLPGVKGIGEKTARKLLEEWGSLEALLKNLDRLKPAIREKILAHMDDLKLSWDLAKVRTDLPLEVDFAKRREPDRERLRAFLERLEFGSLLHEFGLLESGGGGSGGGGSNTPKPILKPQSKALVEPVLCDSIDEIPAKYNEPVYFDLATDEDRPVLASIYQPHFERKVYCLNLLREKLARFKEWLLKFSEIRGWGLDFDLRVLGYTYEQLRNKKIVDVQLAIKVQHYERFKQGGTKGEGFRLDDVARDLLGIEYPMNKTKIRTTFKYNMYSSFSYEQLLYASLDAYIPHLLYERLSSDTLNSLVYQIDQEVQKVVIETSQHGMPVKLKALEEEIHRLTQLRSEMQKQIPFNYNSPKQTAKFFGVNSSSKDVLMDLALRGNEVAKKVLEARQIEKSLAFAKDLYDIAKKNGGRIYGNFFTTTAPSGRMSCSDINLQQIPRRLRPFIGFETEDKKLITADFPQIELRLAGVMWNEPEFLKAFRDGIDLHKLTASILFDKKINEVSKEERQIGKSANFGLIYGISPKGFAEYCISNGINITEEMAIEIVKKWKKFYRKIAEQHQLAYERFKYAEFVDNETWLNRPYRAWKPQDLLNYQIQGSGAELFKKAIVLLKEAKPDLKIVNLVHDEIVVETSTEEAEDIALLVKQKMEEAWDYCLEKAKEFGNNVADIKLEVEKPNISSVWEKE

[6] = system: M402 (synthetic (M160-nuc with G46D and 3'-5' exo reactivated)); settings: vs M160-nuc
[7] = system: M502 (synthetic (M160-nuc mutant W777C D781A D622N Q627N)); experiment: EMSA; settings: 20 mM Tris pH 8.8, 10 mM NaCl, 5 mM MgCl2, 37 C; at assay sensitivity limit
M502 (synthetic (M160-nuc mutant W777C D781A D622N Q627N)), sequence (chain, as listed by the source W777C D781A D622N Q627N): as the sequence (chain, as listed by the source) above, with D46G, D622N, Q627N, W777C, D781A counted along it

[8] = system: M160 (synthetic (shuffled viral Family A DNA polymerase)); experiment: EMSA; settings: 20 mM Tris pH 8.8, 10 mM NaCl, 5 mM MgCl2, 37 C; lacks 5' nuclease domain
[9] = system: M160-nuc (synthetic (shuffled viral polymerase fused to Taq 5'-3' nuclease domain)); experiment: EMSA; settings: 20 mM Tris pH 8.8, 10 mM NaCl, 5 mM MgCl2, 37 C
[10] = substrate taken from general polymerase assay
[11] = 50 C, substrate taken from general RT assay

M401 (synthetic (M160-nuc A339E)), sequence (chain, as listed by the source A339E): as the sequence (chain, as listed by the source) above, with D46G, A339E counted along it
M402 (synthetic (M160-nuc with G46D and 3'-5' exo reactivated)), sequence (chain, as listed by the source G46D): as the sequence (chain, as listed by the source) above, with A339E counted along it

59-mer single-stranded oligonucleotide
relative enzyme activity (relative ssExo activity) [1]: 0.76
relative enzyme activity (relative ssExo activity) [2]: 0.89

primed M13mp18 DNA
relative enzyme activity (relative pol activity) [3, 10]: 0.91
relative enzyme activity (relative pol activity) [4, 10]: 1
relative enzyme activity (relative pol activity) [5, 10]: 0.72
relative enzyme activity (relative pol activity) [6, 10]: 1.05

primed-template DNA (Yamagami et al. 2014)
Kd [7]: < 6.1 nM
Kd [8]: 946 nM
Kd [9]: 78.9 nM

poly(A)/oligo(dT)20
relative enzyme activity (relative RT activity) [3, 11]: 1.02
relative enzyme activity (relative RT activity) ([4]; 50 C): 1
relative enzyme activity (relative RT activity) [5, 11]: 1.03
relative enzyme activity (relative RT activity) [6, 11]: 0.98
